Assay results from paper doi:10.1101/2023.09.21.558797.

Molecular target: His-tagged mouse Endophilin A1 SH3 domain (mouse) (UniProt Q62420)
Test: ELISA; His-tagged mouse Endophilin A1 SH3 domain coated on a 96-well plate, overlaid with increasing concentrations of GST-tagged Dyn1-PRR peptides; two experiments of four replicates

His-tagged mouse Endophilin A1 SH3 domain (mouse), sequence (Q62420 290-349): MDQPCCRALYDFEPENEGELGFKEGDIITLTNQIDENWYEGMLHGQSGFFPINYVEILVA

Q: For “GST-Dyn1xB-PRR (full-length proline-rich region of Dynamin 1 splice variant xB, 746-851) (domain or fragment)”, which fold lower affinity than xA (746–864) is on record?
A: 3 fold
